Assay results as given in patent publication US20230212589A1.

Tests used:
[1] = biological target: Recombinant S1 protein of MERS-CoV (MERS-CoV) (UniProt K9N5Q8)
[2] = biological target: Recombinant S1 protein of SARS-CoV-2 (SARS-CoV-2) (UniProt P0DTC2)

| Substance | sensitivity of the test strip [1] | sensitivity of the test strip [2] |
| --- | --- | --- |
| 6×His tag-AVI tag-DPP4 fusion protein, biotinylated and labeled with color latex (L-SB-DPP4) (receptor; other documents disagree on this pair) | 10 nM | – |
| ACE2-AVI tag-6×His tag fusion protein, biotinylated and labeled with color latex (L-SB-ACE2) (receptor; other documents disagree on this pair) | – | 10 nM |
